Measurements as given in the supplement of paper PMC9170038.

What was measured:
MS2 coat protein [1] = experiment: apparent KD of MS2 coat protein, switch OFF state (with FMN for OFF switches, without FMN for ON switches); designed switch direction (-1 OFF switch, 1 ON switch): -1; higher = weaker reporter binding; settings: FMN input: 0 or 200 uM; Eterna round: R93 (includes R88 designs)
Procedure, shortened: (§1)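 Designed RNA switches were transcribed on-chip from Illumina sequencing clusters. SNAP-549-labelled MS2 coat protein was titrated onto them in twofold steps from 0.7 or 1.5 nM to 3 µM in 100 mM Tris-HCl pH 7.5, 80 mM KCl, 4 mM MgCl2, either without or with constant ligand. Apparent KD reflects the per-design median of normalised cluster binding-curve fits.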

MS2 coat protein [2] = experiment: apparent KD of MS2 coat protein, switch ON state; designed switch direction (-1 OFF switch, 1 ON switch): -1; higher = weaker reporter binding; settings: FMN input: 0 or 200 uM; Eterna round: R93 (includes R88 designs)
Procedure, shortened: as §1

Sequence | apparent KD of MS2 coat protein (MS2 coat protein [1]) [nM] | apparent KD of MS2 coat protein (MS2 coat protein [2]) [nM]
AGCUAGUCAGGAUAUACGAACAUGUAAAAAGACGUGAAGGGACAUGAGGAUCACCCAUGUAGAAGGGACUAGAA [74%, Web mod - With 2 less C's] | 91.3 | 46.7
AGCUAGUCAGGAUAUACGAACAUGUCAAAAGACGUGAAGGGACAUGAGGAUCACCCAUGUAGAAGGGACUAGCA [WEB mod] | 138 | 35.4
AGCUAGUCAGGAUAUACGAACAUGUCAAAAGACGUGAAGGGACAUGAGGAUCACCCAUGUAGAAGGGACUAGCU [salish99-Ex2-20] | 106 | 28.8
AGCUAGUCAGGAUAUACGAACAUGUCAAAAGACGUGAAUAAACAUGAGGAUCACCCAUGUAGAAGGGACUAGCA [Mat - Exclusion 2 - JL-Eli mod - D53] | 14.8 | 18.3
AGCUAGUCAGGAUAUACGAACAUGUCAGAAGACGUGAAGGGACAUGAGGAUCACCCAUGUAGAAGGGACUAGCG [74%, Web mod - With 2 more G's] | 117 | 34.9
AGCUAGUCAGGAUAUACGAGAAUGUCAAAAGACGUGAAGGGACAUGAGGAUCACCCAUGUAGAAGGGACUAGCA [Diamond 23] | 208 | 39.3
AGCUAGUCAGGAUAUACGGACAUGUCAGGAGACGUGAAGGGACAUGAGGAUCACCCAUGUAGAAGGGACUAGCG [74%, Web mod - With 4 more G's] | 106 | 35.5
AGCUAGUGAGGAUAUACGAACAUGUCAAAAGACGUGAAAAAACAUGAGGAUCACCCAUGUAGAAGGCACUAGCA [Mat - Exclusion 2 - JL-Eli mod - D56] | 16.9 | 19.2
AGCUAGUGAGGAUAUACGAACAUGUCAACGGACUGUAAGGGACAUGAGGAUCACCCAUGUAGAAGGCACUAGCA [Diamond 57] | 165 | 67.2
AGGAAACAUGAGGAUCACCCAUGUCAGGAUAUAGAAAAGAAAAGAAAAGAAAGAAGAACUAGAAGGGACAAGAA [Scorpion I] | 26.3 | 27.7
AGGAAACAUGAGGAUCACCCAUGUCAGGAUAUAGGAAAGAAAAGAAAAGAAAGAAGAAUUAGAAGGGACAAGAA [King Scorpion] | 16.5 | 23.5
AGGAAACAUGAGGAUCACCCAUGUGAGGAUAUAGAAAAGAAAAGAAAAGAAAGAAGAACUAGAAGGCACAAGAA [Neheb] | 28.8 | 31.2
AGGAUGUCAGGAUAUGUGUAAAGAAUAAAACAAAUAACAACACAGAAGGGACAUGAGGAUCACCCAUGUUACCA [May 37] | 20.9 | 19.9
AGGGAGUAAGGAUAUGAGAAAUAAAAAGAAGGAAAAAAAGAUCAGAAGGUACAUGAGGAUCACCCAUGUGGGAA [milkweed 10] | 39.9 | 43.1
AGGGAGUGAGGAUAUGCGAAAGAAAAAGAAGGAAAAAAAGAGCAGAAGGUACAUGAGGAUCACCCAUGUAAAAA [milkweed 8] | 16.9 | 27.9
AGUAUGCGAGGAUAUACAUGAGGAUCACCCAUGUGAGAGAUAAAAGUGAGAAAGAAAUGUAGAAGGCGCGUACA [JL Lego Mod 22] | 43 | 98.8
AGUAUGCGAGGAUAUACAUGAGGAUCACCCAUGUGAGAGAUAAAAGUGAGAAAGACAAGUAGAAGGCGCGUACA [JL Lego Mod 23] | 354 | 54.8
AGUAUGCGAGGAUAUACAUGAGGAUCACCCAUGUGAGAGAUAAGUGUGAGAAAGACAUGUAGAAGGCGCGUACA [JL Lego Mod 28] | 35.1 | 146
AGUCAGAGAGGAUAUACAUGAAAAAAAAAAGUUAGAUCCCUACAUGAGGAUCACCCAUGUAGAAGGCUCUGACA [Ex2 Design 151: Sub-opt 15] | 27 | 57.8
AGUCAUACAGGAUAUACAUGAGGAUCACCCAUGUAUAUCCAAAAAAGGUGAUCCUCAUGUAGAAGGGUAUGACA [EX3 202: Super Stable 2] | 26.9 | 13.7

Sequence | apparent KD of MS2 coat protein (MS2 coat protein [1]) [nM] | apparent KD of MS2 coat protein (MS2 coat protein [2]) [nM]
AGUCCAGAAGGAUAUACAUAGGUGAUAAAAAAAAAAAAACUACAUGAGGAUCACCCAUGUAGAAGGUCUGGACA [Brourd - Exclusion 2 - Sub 3] | 24.5 | 37.8
AGUUGGCGAGGAUAUACAUGAGGAUCACCCAUGUAAAAUAAAUAAAAAAAGGGAGAAAGUAGAAGGCGCUGACA [73%, Moding Norbert Elias, 12] | 193 | 56.2
AGUUGGCGAGGAUAUACAUGAGGAUCACCCAUGUAAAAUAAAUAAAAAAUAAAGGGAAGUAGAAGGCGCUGACA [73%, Moding Norbert Elias, 15] | 77 | 41.8
AGUUGGCGAGGAUAUACAUGAGGAUCACCCAUGUAAAAUAAAUAAAAAGGGAAAGAAAGUAGAAGGCGCUGACA [73%, Moding Norbert Elias, 10] | 83.3 | 42.4
AGUUGGCGAGGAUAUACAUGAGGAUCACCCAUGUAAAAUAAUGAAAAAGUAGGGAAAAGUAGAAGGCGCUGACA [73%, Moding Norbert Elias, 19] | 96.7 | 36.2
AGUUGGCGAGGAUAUACAUGAGGAUCACCCAUGUGAGAGAAAAACUCGAAAGAGAAAAGUAGAAGGCGCUGACA [73%, Moding Norbert Elias, 6] | 82.2 | 19.3
AUAAAGUAAGGAUAUGCGAAUAAAUAAGUAGACGAAUGAAAGCAGAAGGUACAUGAGGAUCACCCAUGUAAGAA [Ex 4 Tesla 2] | 19 | 30.3
AUAAUGAGAGGAUAUACAUGAGGAUCACCCAUGUAAUUAACACGGCGAGCACCAAUACGUAGAAGGCUCAUUUA [JR_Exc003+Sub602] | 49.9 | 22.4
AUAAUGUGAGGAUAUACAUGAGGAUCACCCAUGUAAUUAAAAAGGAGAGAAACAAUACGUAGAAGGUACAUUUA [JR_Exc003_Sub510] | 29 | 26.7
AUAGGCCUAGGAUAUACAUGAGGAUCACCCAUGUAAACAGAUAGAUCAAGGUAAACGAGUAGAAGGAGGAAUAA [JR_Exc003_Sub209] | 17.8 | 22
AUAGGUCGAGGAUAUACAUGAGGAUCACCCAUGUAAAUAAAUAAAUAAAACUCCACAAGUAGAAGGCGAAAUAA [JR_Exc003_Sub201] | 22.6 | 28.1
AUAGUAGGAGGAUAUACAUAGAUACAGAUACAUGUAGACGUACAUGAGGAUCACCCAUGUAGAAGGCCUAUGAA [Mat - Same state - Mayanna Mod - D149] | 116 | 126
AUCUAGUCAGGAUAUCGAUGAAAUGAAGUGAAAGAAAAGAACGAGAAGGGACAUGAGGAUCACCCAUGUUAGAA [EteRNA is fun!] | 18.8 | 31.2
AUCUUGUGAGGAUAUGCAUGAAAUGAAGUGAAAGAAAAGAAGCAGAAGGCACAUGAGGAUCACCCAUGUUAGAA [EteRNA is fun!] | 62.2 | 33.5
AUUAUGUAAGGAUAUGAGUGAACAACAAAACAAAUAACGACUCAGAAGGUACAUGAGGAUCACCCAUGUAUAAA [May 70] | 21 | 28.9
CAAAGGUGAGGAUAUACAUAACUAUGACGAAAGUCAUAAACACAUGAGGAUCACCCAUGUAGAAGGCACCACAA [e2] | 29.9 | 32.6
CAGUACUGAGGAUAUACAUGAGGAUCACCCAUGUAAAAAACCUACGAAAGUAGGAAAUGUAGAAGGCAGUACUG [Ex3: 803] | 22.2 | 16.4
CAUAAGCAAGGAUAUACAUGAGGAUCACCCAUGUAGCUUUGCUUCGUGGGCACAACAUGUAGAAGGUGCGAAAA [Leceedon] | 13.9 | 15
CCACAGGUAGGAUAUGCUGGGUGGGAUAAAUAAUUCCUGUGACAUGAGGAUCACCCAUGUAGAAGGACCAAAAG [Rixela] | 40.1 | 22.9
CCUAUGUCAGGAUAUCAGUAGUAAAAAAAAAAAAUUACUACUGAGAAGGGACAUGAGGAUCACCCAUGUCACUU [EX4 311: Super Stable 11] | 18.8 | 28.5
